Reference: PMC7160020 (Biochemistry, 2020)
Read-outs that look alike come from different tables or passages of the source.

What was measured:
[1] = biological target: RNR β2 (Escherichia coli) (UniProt P69924); conditions: cited from earlier work
[2] = biological target: RNR β2 (Escherichia coli) (UniProt P69924); conditions: cited from earlier work; remark: listed apart in the source
[3] = biological target: T1, His6-α2 (E. coli class Ia ribonucleotide reductase α subunit, NrdA) (E. coli, UniProt P00452 1-761); experiment: stopped-flow fluorescence spectroscopy
T1 sequence (looked up): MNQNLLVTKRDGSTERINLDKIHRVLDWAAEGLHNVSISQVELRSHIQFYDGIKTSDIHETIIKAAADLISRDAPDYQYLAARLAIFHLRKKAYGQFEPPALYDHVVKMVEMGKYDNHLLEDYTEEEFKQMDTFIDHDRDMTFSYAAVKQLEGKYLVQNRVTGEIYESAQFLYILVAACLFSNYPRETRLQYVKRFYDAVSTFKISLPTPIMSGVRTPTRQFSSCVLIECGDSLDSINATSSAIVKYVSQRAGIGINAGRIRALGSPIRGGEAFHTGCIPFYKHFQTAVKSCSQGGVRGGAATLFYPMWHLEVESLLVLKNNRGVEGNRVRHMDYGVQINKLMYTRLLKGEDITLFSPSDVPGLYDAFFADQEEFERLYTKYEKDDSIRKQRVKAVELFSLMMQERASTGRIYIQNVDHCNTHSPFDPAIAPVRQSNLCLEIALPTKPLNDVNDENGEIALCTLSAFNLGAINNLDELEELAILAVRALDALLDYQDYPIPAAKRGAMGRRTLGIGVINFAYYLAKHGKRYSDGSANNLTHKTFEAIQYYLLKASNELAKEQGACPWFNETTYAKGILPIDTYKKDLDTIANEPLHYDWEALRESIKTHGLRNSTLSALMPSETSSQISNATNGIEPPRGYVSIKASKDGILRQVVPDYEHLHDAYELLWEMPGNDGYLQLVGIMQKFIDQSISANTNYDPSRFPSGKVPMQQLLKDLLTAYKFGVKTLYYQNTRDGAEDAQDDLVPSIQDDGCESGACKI

[4] = biological target: dansyl-β2 (C268S/C305S/V365C-β2 labeled with BADAN) (E. coli); experiment: stopped-flow fluorescence spectroscopy
[5] = biological target: dansyl-β2 (C268S/C305S/V365C-β2 labeled with BADAN) (E. coli); experiment: stopped-flow fluorescence spectroscopy; remark: listed apart in the source
[6] = biological target: dansyl-β2 (C268S/C305S/V365C-β2 labeled with BADAN) (E. coli); experiment: stopped-flow fluorescence spectroscopy; remark: listed apart in the source
[7] = biological target: dansyl-β2 (C268S/C305S/V365C-β2 labeled with BADAN) (E. coli); experiment: stopped-flow fluorescence spectroscopy; remark: listed apart in the source

Molecule: RNR α2 (from UniProt P00452)
- Kd [1]: 200 nM
- Kd [2]: 400 nM

B1: met-β2 (wt-β2 with the tyrosyl radical reduced by hydroxyurea) (enzyme, E. coli, UniProt P69924 1-376, looked up)
chain: MAYTTFSQTKNDQLKEPMFFGQPVNVARYDQQKYDIFEKLIEKQLSFFWRPEEVDVSRDRIDYQALPEHEKHIFISNLKYQTLLDSIQGRSPNVALLPLISIPELETWVETWAFSETIHSRSYTHIIRNIVNDPSVVFDDIVTNEQIQKRAEGISSYYDELIEMTSYWHLLGEGTHTVNGKTVTVSLRELKKKLYLCLMSVNALEAIRFYVSFACSFAFAERELMEGNAKIIRLIARDEALHLTGTQHMLNLLRSGADDPEMAEIAEECKQECYDLFVQAAQQEKDWADYLFRDGSMIGLNKDILCQYVEYITNIRMQAVGLDLPFQTRSNPIPWINTWLVSDNVQVAPQEVEVSSYLVGQIDSEVDTDDLSNFQL
modifications: diferric center, Y122• reduced by hydroxyurea
- binding result [3]: binds

B2: His6-α2 (E. coli class Ia ribonucleotide reductase α subunit, NrdA) (enzyme)
chain: T1 sequence (looked up)
- kon [4]: 1.79e+08 M⁻¹ s⁻¹
- kon [5]: 1.56e+08 M⁻¹ s⁻¹
- kon [6]: 1.93e+08 M⁻¹ s⁻¹
- k dissoc, faster phase of the biexponential decay (α4β4 state, with dATP) [7]: 7 s⁻¹
- k dissoc, slower phase of the biexponential decay (α4β4 state, with dATP) [7]: 0.46 s⁻¹
- koff [7]: 109 s⁻¹
- kon [7]: 1.63e+08 M⁻¹ s⁻¹
